Test results published in patent publication US12371725.

Test system: Cre recombinase (Bacteriophage P1?)
Test: cleavage_in_vitro
Conditions: 73 nM Cre, 37 C, 30 min; approximate value; ethidium bromide inhibits

Substance: pLoxFL BamHI digest (linear, two loxP sites)
- activity (% recombination): 74
